{"source": "patent US20190233494A1", "about": "(Sanofi, published 2019)", "note": "Starred links: 1 amine or outer side, 2 acyl side, 3 side chain; linkers in the order of their positions; H or OH if unused. Non-standard residues stand in square brackets, D forms with d. Groups on a side chain read outwards from the residue. *: point of attachment. TTDS = 4-[3-[2-[2-(3-aminopropoxy)ethoxy]ethoxy]propylamino]-4-oxo-butanoyl; γGlu = O=C(O)[C@H](CCC(=O)[*:2])N[*:1]; Stearoyl = CCCCCCCCCCCCCCCCCC(=O)*; Palmitoyl = CCCCCCCCCCCCCCCC(=O)*; αMeK = C[C@](N)(CCCCN)C(=O)O; AEEA = NCCOCCOCC(=O)O; Aib = CC(C)(N)C(=O)O", "data": [{"molecular_target": "T1, RXFP1 receptor (endogenous, on OVCAR5 cells) (UniProt Q9HBX9 1-757, limits assumed)", "T1 sequence (looked up)": "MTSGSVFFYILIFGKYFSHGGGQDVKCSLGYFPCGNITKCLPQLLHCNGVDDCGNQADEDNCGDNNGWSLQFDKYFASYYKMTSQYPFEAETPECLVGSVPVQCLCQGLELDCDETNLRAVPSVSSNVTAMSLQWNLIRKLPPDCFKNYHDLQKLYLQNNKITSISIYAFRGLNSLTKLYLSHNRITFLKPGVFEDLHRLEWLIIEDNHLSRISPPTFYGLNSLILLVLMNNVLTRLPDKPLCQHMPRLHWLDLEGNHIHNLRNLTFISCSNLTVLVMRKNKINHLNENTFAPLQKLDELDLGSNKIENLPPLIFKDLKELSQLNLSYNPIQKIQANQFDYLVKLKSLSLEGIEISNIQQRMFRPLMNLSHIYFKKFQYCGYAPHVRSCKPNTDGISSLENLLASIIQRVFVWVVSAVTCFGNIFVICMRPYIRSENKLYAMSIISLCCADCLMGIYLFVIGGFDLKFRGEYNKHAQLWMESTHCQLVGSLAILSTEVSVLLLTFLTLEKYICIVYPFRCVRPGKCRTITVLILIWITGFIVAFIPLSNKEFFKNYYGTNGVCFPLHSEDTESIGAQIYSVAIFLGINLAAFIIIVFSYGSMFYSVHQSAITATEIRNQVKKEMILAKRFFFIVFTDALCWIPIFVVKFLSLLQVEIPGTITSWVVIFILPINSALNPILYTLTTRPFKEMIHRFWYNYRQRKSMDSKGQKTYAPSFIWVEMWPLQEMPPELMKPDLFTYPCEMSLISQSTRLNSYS", "assay": "cell-based or functional assay", "units": {"EC50 (nM), OVCAR 5 cells (cAMP)": "nM", "EMax, OVCAR 5 cells (cAMP)": "%"}, "values": [{"binder": "Ac-LEGREKVRAK(Ac)I[Aib][Aib]EGK([TTDS-TTDS-γGlu-γGlu-γGlu-Stearoyl])STFS[αMeK]RAK(Ac)-NH2", "note": "[peptide of SEQ ID NO: 34]", "EC50 (nM), OVCAR 5 cells (cAMP)": 0.14, "EMax, OVCAR 5 cells (cAMP)": 90}, {"binder": "Ac-LEGREKVRAK(Ac)I[Aib][Aib]EGK([TTDS-TTDS-TTDS-γGlu-γGlu-γGlu-Palmitoyl])STW[Aib]KRAK(Ac)-NH2", "note": "[peptide of SEQ ID NO: 35]", "EC50 (nM), OVCAR 5 cells (cAMP)": 2.33, "EMax, OVCAR 5 cells (cAMP)": 91}, {"binder": "Ac-LEGREKVRAK(Ac)I[Aib][Aib]EGK([TTDS-TTDS-TTDS-γGlu-γGlu-γGlu-Palmitoyl])STFS[Dlys]RAK(Ac)-NH2", "note": "[peptide of SEQ ID NO: 36]", "EC50 (nM), OVCAR 5 cells (cAMP)": 3.6, "EMax, OVCAR 5 cells (cAMP)": 93}, {"binder": "Ac-LEGREKVRAK(Ac)I[Aib][Aib]EGK([TTDS-TTDS-γGlu-γGlu-γGlu-Palmitoyl])STWS[Aib]RKK(Ac)-NH2", "note": "[peptide of SEQ ID NO: 4]", "EC50 (nM), OVCAR 5 cells (cAMP)": 1.5, "EMax, OVCAR 5 cells (cAMP)": 89}, {"binder": "Ac-LEGRELVRAK(Ac)I[Aib][Aib]EGK([TTDS-TTDS-TTDS-γGlu-γGlu-γGlu-Palmitoyl])STWS[Aib]RRK(Ac)-NH2", "note": "[peptide of SEQ ID NO: 37]", "EC50 (nM), OVCAR 5 cells (cAMP)": 5.6, "EMax, OVCAR 5 cells (cAMP)": 98}, {"binder": "Ac-LEGREFVRAK(Ac)I[Aib][Aib]EGK([TTDS-TTDS-TTDS-γGlu-γGlu-γGlu-Palmitoyl])STWS[Aib]RRK(Ac)-NH2", "note": "[peptide of SEQ ID NO: 39]", "EC50 (nM), OVCAR 5 cells (cAMP)": 8.7, "EMax, OVCAR 5 cells (cAMP)": 93}, {"binder": "Ac-LEGREKVRAK(Ac)I[Aib][Aib]EGK([AEEA-AEEA-AEEA-AEEA-γGlu-γGlu-γGlu-Palmitoyl])STWS[αMeK]RAK(Ac)-NH2 (SMILES CCCCCCCCCCCCCCCC(=O)N[C@@H](CCC(=O)N[C@@H](CCC(=O)N[C@@H](CCC(=O)NCCOCCOCC(=O)NCCOCCOCC(=O)NCCOCCOCC(=O)NCCOCCOCC(=O)NCCCC[C@H](NC(=O)CNC(=O)[C@H](CCC(=O)O)NC(=O)C(C)(C)NC(=O)C(C)(C)NC(=O)[C@@H](NC(=O)[C@H](CCCCNC(C)=O)NC(=O)[C@H](C)NC(=O)[C@H](CCCNC(=N)N)NC(=O)[C@@H](NC(=O)[C@H](CCCCN)NC(=O)[C@H](CCC(=O)O)NC(=O)[C@H](CCCNC(=N)N)NC(=O)CNC(=O)[C@H](CCC(=O)O)NC(=O)[C@H](CC(C)C)NC(C)=O)C(C)C)[C@@H](C)CC)C(=O)N[C@@H](CO)C(=O)N[C@H](C(=O)N[C@@H](Cc1c[nH]c2ccccc12)C(=O)N[C@@H](CO)C(=O)N[C@@](C)(CCCCN)C(=O)N[C@@H](CCCNC(=N)N)C(=O)N[C@@H](C)C(=O)N[C@@H](CCCCNC(C)=O)C(N)=O)[C@@H](C)O)C(=O)O)C(=O)O)C(=O)O)", "note": "[peptide of SEQ ID NO: 42]", "EC50 (nM), OVCAR 5 cells (cAMP)": 1.5, "EMax, OVCAR 5 cells (cAMP)": 84}, {"binder": "Ac-LEGREKVRAK(Ac)I[Aib][Aib]EGK([TTDS-TTDS-TTDS-γGlu-γGlu-γGlu-Palmitoyl])STW[Dser]KRAK(Ac)-NH2", "note": "[peptide of SEQ ID NO: 44]", "EC50 (nM), OVCAR 5 cells (cAMP)": 2.2, "EMax, OVCAR 5 cells (cAMP)": 97}]}]}
